Source: article PMC2919722
Residue numbers refer to the chain shown, from its start. Like-named read-outs stand apart in the source and are kept apart here.

B1: TGmCGCA, methylated (dsDNA)
DNA 1: ACATGCCTCATTGCGCACTTAACTGCAGCT
DNA 2: AGCTGCAGTTAAGTGCGCAATGAGGCATGT
modifications: 5mC at CpG, both strands (implied)
B2: TmCGG, methylated (dsDNA)
DNA 1: B1 DNA 1 with T12G, G13T, C16G
DNA 2: B1 DNA 2 with G15C, C18A, A19C
modifications: 5mC at CpG, both strands (implied)
B3: ACGG, unmethylated (dsDNA)
DNA 1: B1 DNA 1 with T12G, G13A, C16G
DNA 2: B1 DNA 2 with G15C, C18T, A19C
B4: CCGA, unmethylated (dsDNA)
DNA 1: B1 DNA 1 with T12G, G13C, C16A
DNA 2: B1 DNA 2 with G15T, C18G, A19C
B5: CCGT, unmethylated (dsDNA)
DNA 1: B1 DNA 1 with T12G, G13C, C16T
DNA 2: B1 DNA 2 with G15A, C18G, A19C
B6: CCGC, unmethylated (dsDNA)
DNA 1: B1 DNA 1 with T12G, G13C
DNA 2: B1 DNA 2 with C18G, A19C
B7: A/T run mutated, methylated (dsDNA)
DNA 1: ACATGCCTCATGCCGGACTCGACTGCAGCT
DNA 2: AGCTGCAGTCGAGTCCGGCATGAGGCATGT
modifications: 5mC at C14 and opposite strand CpG (implied)
B8: CmCGC, methylated (dsDNA)
DNA 1: B1 DNA 1 with T12G, G13C
DNA 2: B1 DNA 2 with C18G, A19C
modifications: 5mC at CpG, both strands (implied)
B9: CCGG, unmethylated (dsDNA)
DNA 1: B7 DNA 1 with C20T, G21A
DNA 2: B7 DNA 2 with C10T, G11A
B10: TTmCGCA, methylated (dsDNA)
DNA 1: B1 DNA 1 with G13T
DNA 2: B1 DNA 2 with C18A
modifications: 5mC at CpG, both strands (implied)
B11: GCGG, unmethylated (dsDNA)
DNA 1: B1 DNA 1 with T12G, C16G
DNA 2: B1 DNA 2 with G15C, A19C
B12: TCGG, unmethylated (dsDNA)
DNA 1: B7 DNA 1 with C13T, C20T, G21A
DNA 2: B7 DNA 2 with C10T, G11A, G18A

Legend:
Assay in all cases: EMSA
GST-MBD1 MBD (1-161) [1] = target: T1, GST-MBD1 MBD (1-161) (UniProt Q9UIS9 1-161)
T1 sequence: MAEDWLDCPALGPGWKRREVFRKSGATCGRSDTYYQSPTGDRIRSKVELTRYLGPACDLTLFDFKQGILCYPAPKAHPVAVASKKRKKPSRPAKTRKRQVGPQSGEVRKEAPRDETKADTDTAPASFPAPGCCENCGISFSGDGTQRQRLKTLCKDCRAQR

GST-MBD1 MBD (1-161) [2] = target: T1, GST-MBD1 MBD (1-161); remark: listed apart in the source
MBD1 CXXC3 = target: T2, MBD1 CXXC3 (UniProt Q9UIS9-5 252-344)
T2 sequence: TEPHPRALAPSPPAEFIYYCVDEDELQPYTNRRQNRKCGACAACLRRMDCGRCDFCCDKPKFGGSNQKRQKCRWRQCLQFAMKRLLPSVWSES

GST-MBD1 MBD (1-161) [3] = target: T1, GST-MBD1 MBD (1-161); remark: listed apart in the source
GST-MBD1 MBD (1-161) [4] = target: T1, GST-MBD1 MBD (1-161); remark: listed apart in the source
GST-MBD1 MBD (1-161) [5] = target: T1, GST-MBD1 MBD (1-161); remark: listed apart in the source

Row | Binder | binding result (MBD1 CXXC3) | also measured
1 | B1 |  | binding result (GST-MBD1 MBD (1-161) [1]): binds
2 | B2 |  | binding result (GST-MBD1 MBD (1-161) [2]): binds
3 | B3 | binds | 
4 | B4 | binds | 
5 | B5 | binds | 
6 | B6 | binds | 
7 | B7 |  | binding result (GST-MBD1 MBD (1-161) [3]): binds
8 | B8 |  | binding result (GST-MBD1 MBD (1-161) [4]): binds
9 | B9 | binds | 
10 | B10 |  | binding result (GST-MBD1 MBD (1-161) [5]): binds
11 | B11 | binds | 
12 | B12 | binds | 
